Results published in PMC8699279, “Exercise-Induced Irisin Decreases Inflammation and Improves NAFLD by Competitive Binding with MD2” (Cells, 2021).

Biological target: T1, recombinant human MD2 (human, UniProt Q9Y6Y9 19-160)
T1 construct: myeloid differentiation factor 2 (MD2), human, recombinant; No catalogue number is printed; PDB 2E56 was used only for docking; also called rhMD2; myeloid differentiation factor 2; source: bought: R&D Systems
T1 sequence: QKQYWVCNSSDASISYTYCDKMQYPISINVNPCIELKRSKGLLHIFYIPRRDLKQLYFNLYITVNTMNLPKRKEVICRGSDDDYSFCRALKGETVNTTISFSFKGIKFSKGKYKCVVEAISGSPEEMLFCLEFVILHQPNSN
Assay: SPR; Biacore T200, CM5 chip, target protein amine-coupled; irisin flowed at seven concentrations, 30 μL/min, 200 s association, 200 s dissociation, 25 °C, PBS with 0.5% P20; global fit with a 1:1 Langmuir model
Conditions: both partners purified

Kd: 1.65 nM
B1: recombinant irisin (ligand)
chain: DSPSAPVNVTVRHLKANSAVVSWDVLEDEVVIGFAISQQKKDVRMLRFIQEVNTTTRSCALWDLEEDTEYIVHVQAISIQGQSPASEPVLFKTPREAEKMASKNKDEVTMKE
modifications: Commercial recombinant protein (Phoenix Pharmaceuticals); catalogue number, host and glycosylation not stated. Limits are the conventional 112-aa mature irisin: residues 32-143 of the 212-aa FNDC5 …
